The numbers were not newly measured in publication PMC11596140, which cites them from elsewhere.

The target of the data set is Cdc4 (Saccharomyces cerevisiae) (UniProt P07834). Kind of data set: intrinsic Trp fluorescence.
Chain of UniProt P07834 (P07834 whole entry): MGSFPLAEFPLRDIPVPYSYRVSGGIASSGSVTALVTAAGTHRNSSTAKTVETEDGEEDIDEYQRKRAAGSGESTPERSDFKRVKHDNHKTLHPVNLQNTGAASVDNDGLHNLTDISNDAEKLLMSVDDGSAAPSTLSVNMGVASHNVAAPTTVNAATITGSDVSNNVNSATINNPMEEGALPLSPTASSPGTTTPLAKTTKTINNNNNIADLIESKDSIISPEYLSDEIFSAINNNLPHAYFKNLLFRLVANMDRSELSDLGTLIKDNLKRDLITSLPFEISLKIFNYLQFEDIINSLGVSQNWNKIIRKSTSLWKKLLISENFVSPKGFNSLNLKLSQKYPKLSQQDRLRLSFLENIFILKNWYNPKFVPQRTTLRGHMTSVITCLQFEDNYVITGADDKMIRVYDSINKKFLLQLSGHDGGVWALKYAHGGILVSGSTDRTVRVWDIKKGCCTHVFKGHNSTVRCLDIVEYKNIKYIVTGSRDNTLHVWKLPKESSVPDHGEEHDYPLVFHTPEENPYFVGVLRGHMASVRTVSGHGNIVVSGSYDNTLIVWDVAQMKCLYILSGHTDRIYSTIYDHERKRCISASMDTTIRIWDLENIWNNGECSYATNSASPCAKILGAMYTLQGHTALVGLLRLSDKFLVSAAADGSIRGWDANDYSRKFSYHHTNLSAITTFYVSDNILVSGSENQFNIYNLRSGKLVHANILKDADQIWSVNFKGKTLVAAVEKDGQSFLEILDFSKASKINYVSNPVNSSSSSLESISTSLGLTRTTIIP

Regarding Sic1 (from UniProt P38634), the Kd is 600 nM.

A word on the Kd: it is the constant that tells how readily two partners part at equilibrium.
